Legend:
[1] = target: T1, recombinant human IGF-IR (rhIGFIR) (human, UniProt P08069 31-932, limits assumed); assay: SPR (BIAcore), immobilized IGF-IR
T1 construct: Bought; also called immobilized IGF-IR

[2] = target: T2, EGFR expressed on cells and on A431 derived membrane vesicles (human, UniProt P00533 25-1210)
T2 construct: whole, on cells; Used for assays on whole cells and on immobilised A431 membrane vesicles; also called EGF receptor; EGFR harboring A431 vesicles

purified EGFR (Sigma) = target: T3, purified EGFR (Sigma) (human, UniProt P00533 25-1210, limits assumed)
T3 construct: Bought; purified from human A431 cells; also called solid phase coated EGFR

B1: PMP1C7 (VHH)
VHH: QVKLEESGGGLVQAGGSLRLSCVASGRTFSRTAMAWFRQAPGKEREFVATITWNSGTTRYADSVKGRFFISKDSAKNTIYLEMNSLEPEDTAVYYCAATAAAVITPTRGYYNYWGQGTQVTVSS
notes: Anti-IGF-IR Nanobody; tag not described; also called IGFRPMP1C7
koff [1]: 0.0019 s⁻¹

B2: PMP9C1 (VHH)
VHH: EVQLVESGGGLVQAGGSLRLSCAASGRTFSGFAMGWFRQAPGKEREFVAAISWSGGSLLYVDSVKGRFTISRDNAKNTVHLQMNSLKPGDTAVYYCAAMVGPPPRSLDYGLGNHYEYDYWGQGTQVTVSS
notes: Anti-EGFR Nanobody; tag not described; also called Nanobody family X; Type C Nanobody
binding result [2]: binds

B3: PMP7A5 (VHH)
VHH: EVQLVESGGGLVQAGGSLRLSCAASDRTFSSNNMGWFRQAPGKEREFVAAIGWGGLETHYSDSVKGRFTISRDNAKNTVYLQMNSLKPEDTARYYCAVSSTRTVIYTLPRMYNYWGQGTQVTVSS
notes: Anti-EGFR Nanobody; tag not described; also called EGFRPMP7A5
koff (purified EGFR (Sigma)): ≤ 0.0017 s⁻¹

B4: 27-10-E8 (VHH)
VHH: EVQLVESGGGLVQAGGSLRLSCAASGRTFSTYTMAWFRQAPGKEREFVQGISRSDGGTYDADSVKGRFTISRDNAKNTVYLQMNSLKPEDTAVYFCAAASVKLVYVNPNRYSYWGQGTQVTVSS
notes: Anti-EGFR Nanobody, tested as periplasmic extract or IMAC purified protein; tag not described; also called Type A Nanobody
koff (purified EGFR (Sigma)): ≤ 0.0017 s⁻¹

B5: PMP7E12 (VHH)
VHH: EVQLVESGGGLVQAGGSLRLSCTASGRTFENNAMAWFRQAAGKEREFVAGFSGSGGATYYAHSVEGRFTISRDNAKNTVDLQMNSLSLEDTAVYLCAARRKSGEVVFTIPARYDYWGQGTQVTVSS
notes: Anti-EGFR Nanobody
koff (purified EGFR (Sigma)): ≤ 0.0017 s⁻¹

B6: PMP38G7 (VHH)
VHH: EVQLVESGGGLVQAGGSLRLSCAASGRTFSSYVMGWFRQATGKEREFVATIAWDSGSTYYADSVKGRFTISRDNAKNTVHLQMNSLKPEDTAVYYCAASYNVYYNNYYYPISRDEYDYWGQGTQVTVSS
notes: also called Nanobody family VIII
koff (purified EGFR (Sigma)): ≤ 0.0017 s⁻¹
